Source: patent US20230106715A1 (BIOSION, published 2023)
One block for each binder: values may come before it.

Experiments:
[1] = target: T1, recombinant human Siglec15-his protein (human, UniProt Q6ZMC9 20-263); experiment: capture ELISA, captured antibody, biotin-labeled human Siglec15-his in solution
T1 construct: In house made; Biotin-labeled in the capture ELISA
T1 sequence: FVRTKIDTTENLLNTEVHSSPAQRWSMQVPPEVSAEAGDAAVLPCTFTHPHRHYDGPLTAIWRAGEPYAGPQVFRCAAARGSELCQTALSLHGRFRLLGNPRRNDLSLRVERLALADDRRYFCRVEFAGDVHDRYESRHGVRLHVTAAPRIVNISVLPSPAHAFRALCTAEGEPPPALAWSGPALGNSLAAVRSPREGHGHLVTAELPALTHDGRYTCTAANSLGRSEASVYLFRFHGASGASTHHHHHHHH
Experimental: Briefly, 96-well plates were coated with 100 μl of 2 μg/ml AffiniPure Goat Anti-Human IgG F(ab′)₂ fragment specific (Jackson Immuno Research, Cat #109-005-097) in PBS for 2 hours at 37° C. Plates were washed once with wash buffer (PBS+0.05% v/v Tween-20, PBST) and then blocked with 200 μl blocking buffer (5% w/v non-fatty milk in PBST) overnight at 4° C. Plates were washed 4 times and respectively incubated with 100 μl serially diluted anti-Siglec15 antibodies of the disclosure, the benchmark and hIgG (human immunoglobulin (pH4) for intravenous injection, Hualan Biological Engineering Inc.), 5-fold dilution in 2.5% w/v non-fatty milk in PBST starting at 66.7 nM, for 40 minutes at 37° C., and then washed 4 times again. […] The reaction was stopped in 4 minutes at room temperature with 50 μl/well 1M H₂SO₄, and the absorbance of each well was read on a microplate reader using dual wavelength mode with 450 nm for TMB and 630 nm as the reference wavelength, then the OD (450-630) values were plotted against antibody concentration. Data was analyzed using Graphpad Prism software and EC₅₀ values were reported.

[2] = target: T2, human Siglec15-Fc protein (human); experiment: competitive ELISA: biotin-labeled human Siglec15-Fc in solution, competitor coated benchmark
T2 construct: In house made; also called recombinant human Siglec15 protein with human IgG1 Fc at the C-terminus
Experimental: (§1) The abilities of the anti-Siglec15 antibodies of the disclosure to block benchmark-human Siglec15 binding were measured in a competitive ELISA assay. Briefly, the benchmark was coated on 96-well micro plates at 2 μg/mL in PBS, 100 μl per well, and incubated for 2 hours at 37° C. Then plates were washed once with wash buffer, and blocked with 5% w/v non-fatty milk in PBST overnight at 4° C. The next day, the anti-Siglec15 antibodies of the disclosure or controls were diluted with biotin labeled human Siglec15-Fc protein (prepared in-house with SEQ ID NO: 19, 37 ng/ml in PBST with 2.5% w/v non-fatty milk), starting at 80 nM with a 4-fold serial dilution, and incubated at room temperature for 40 minutes. After plate washing 4 times, the antibody/Siglec15-Fc mixtures were added to benchmark coated plates, 100 μl per well. After incubation at 37° C. for 40 minutes, plates were washed 4 times again using wash buffer. Then the plates were added and incubated with 100 μl/well streptavidin conjugated HRP for 40 minutes at 37° C. […] Finally, TMB was added and the reaction was stopped using 1M H₂SO₄, and the absorbance of each well was read on a microplate reader using dual wavelength mode with 450 nm for TMB and 630 nm as the reference wavelength, then the OD (450-630) values were plotted against antibody concentration. Data was analyzed using Graphpad Prism software and IC₅₀ values were reported.

[3] = target: T3, human Siglec15-mouse Fc protein (human); experiment: cell based blocking FACS: human Siglec15-mouse Fc in solution, blocked ligand human LRRC4C on LRRC4C-3F12-1B9 cells
T3 construct: In house made
T3 chain: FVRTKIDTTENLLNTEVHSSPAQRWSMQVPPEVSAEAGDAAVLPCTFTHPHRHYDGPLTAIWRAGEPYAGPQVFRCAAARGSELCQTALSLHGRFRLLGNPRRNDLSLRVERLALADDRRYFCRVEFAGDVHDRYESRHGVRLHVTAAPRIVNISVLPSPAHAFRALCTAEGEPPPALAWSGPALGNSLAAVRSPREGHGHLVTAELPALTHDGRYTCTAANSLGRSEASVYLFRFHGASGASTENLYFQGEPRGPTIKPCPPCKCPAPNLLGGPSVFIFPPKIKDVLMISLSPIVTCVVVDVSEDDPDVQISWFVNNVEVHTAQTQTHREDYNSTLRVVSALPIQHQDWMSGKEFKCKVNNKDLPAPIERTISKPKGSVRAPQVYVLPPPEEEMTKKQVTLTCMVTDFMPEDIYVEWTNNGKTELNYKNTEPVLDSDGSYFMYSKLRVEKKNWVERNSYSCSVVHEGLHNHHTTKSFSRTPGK
Experimental: The activities of the anti-Siglec15 antibodies to block binding of Siglec15 protein to cell surface LRRC4C were evaluated by Flow Cytometry (FACS), using in house made LRRC4C-3F12-1B9 cells. Briefly, HEK-293 cells (ATCC #CRL-1573) were transfected with pCMV-T-P plasmid constructs with the nucleotide sequence encoding human LRRC4C (amino acid residues Met1-Ile640 of uniprot #Q9HCJ2) inserted between EcoRI and XbaI, following the instruction of lipofectamine 3000 transfection reagent (Thermo Fisher). A stable cell named LRRC4C-3F12-1B9 was chosen for subsequent cell based ligand-blocking assay.
Briefly, the anti-Siglec15 antibodies of the disclosure or controls were diluted with human Siglec15-mouse Fc protein (prepared in-house with SEQ ID NO: 26, 8 μg/ml […] in FACS buffer), starting at 66.67 nM with a 5-fold serial dilution, and incubated at room temperature for 40 minutes. Then, LRRC4C-3F12-1B9 cells were harvested from cell culture flasks, washed twice and re-suspended in PBS containing 2% v/v Fetal Bovine Serum (FACS buffer). Then, 1×10⁵ cells per well in 96 well-plates were incubated in 100 μL of the antibody/Siglec15-mouse Fc mixtures for 40 minutes at 4° C. […] Cells were washed twice and re-suspended in FACS buffer. Fluorescence was measured using a Becton Dickinson FACS Canto II-HTS equipment. Data was analyzed using Graphpad Prism software and IC₅₀ values were reported.

[4] = target: T2, human Siglec15-Fc protein; experiment: competitive ELISA: biotin-labeled human Siglec15-Fc in solution, competitor coated benchmark; curve levels off at OD about 0.55, inhibition incomplete
Experimental: as §1

EC50 [1]: 2.35 nM
IC50 [2]: 0.338 nM
IC50 [3]: 0.639 nM
B1: anti-Siglec15 benchmark (ch5G12) (antibody, human IgG1, kappa, V domains shown)
VH: QVQLQQPGAELVKPGASVKMSCKASGYTFTSYWITWVIQRPGQGLEWIGDIYCGSDTMHYNEKFKNKATLTVDTSSSTAYMQLSSLTSEDSAVYYCARWWDYGSSYDYFDYWGQGTTLTVSS
VL: DIKMTQSPSSMYASLGERVTITCKASQDINSYLSWFQQKPGKSPKTLIYRANRLVDGVPSRFSGSGSGQDYSLTISSLEYEDMGIYYCLQYDEFPYTFGGGTKLEIKR
notes: ch5G12 (US 20190202912A1); also called BM; Siglec15-ch5G9

IC50 [4]: ~0.0777 nM
B2: A1E10G7H9 (antibody, V domains shown)
VH: QVQLQESGPGLVKPSGTLSLTCAVSGGSISSSNWWHWVRQPPGKGLEWIGEIYHSGNTNYKPSLKSRVTISVDKSKNQFSLKLSSVTAADTAVYYCARDEGNGWSNAFDIWGQGTMVTVSS
VL: ENVLTQSPGTLSLSPGERVTLSCRASQSVSSSYLAWYQQKPGQAPRFLIYGASGGATGIPDRFSGSGSGTDFTLTISRLEPEDFAVYYCQQYGSSPITFGQGTRLEIK
notes: Fully human antibody from transgenic mouse hybridoma
